From US20190376034A1

Biological target: immune complexes (Dylight 650-labeled BSA + polyclonal rabbit anti-BSA IgG + human serum complement) (bovine) (UniProt P02769)
Assay: cell-based or functional assay

UniProt P02769, sequence (P02769 25-607, one chain of several): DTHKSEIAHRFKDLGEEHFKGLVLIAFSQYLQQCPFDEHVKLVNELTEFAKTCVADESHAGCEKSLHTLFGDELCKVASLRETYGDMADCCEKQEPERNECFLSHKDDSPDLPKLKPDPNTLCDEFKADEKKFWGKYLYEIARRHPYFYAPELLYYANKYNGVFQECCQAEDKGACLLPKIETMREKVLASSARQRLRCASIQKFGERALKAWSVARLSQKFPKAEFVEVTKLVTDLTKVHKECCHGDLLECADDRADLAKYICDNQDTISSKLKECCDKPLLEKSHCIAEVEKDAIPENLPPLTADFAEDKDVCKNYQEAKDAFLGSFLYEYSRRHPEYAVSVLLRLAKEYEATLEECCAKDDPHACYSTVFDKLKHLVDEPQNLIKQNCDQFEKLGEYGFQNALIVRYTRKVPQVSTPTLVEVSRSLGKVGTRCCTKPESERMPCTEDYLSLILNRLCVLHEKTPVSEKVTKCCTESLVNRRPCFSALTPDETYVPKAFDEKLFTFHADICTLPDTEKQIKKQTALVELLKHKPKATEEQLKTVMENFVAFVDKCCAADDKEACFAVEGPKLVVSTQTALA

With “complement receptor 1 (CR1) exogenously over-expressed on the surface of cultured erythroid cells (from UniProt P17927 42-2039)” the uptake of fluorescent immune complexes by activated U937 macrophages in co-culture (flow cytometry) was 2 fold.
